Measured values taken from the DeepSol protein solubility set.

Assay: soluble on expression in E. coli; label from the status in PepcDB or PDB records

In the case of “MQLKVPEHQVAGHIAKDGKPGPLVDDKGRFFKPLQGDSRGEIEVKFYESFSSNTEVPEHIHRYFPVYHGTQAVEGSDGAAMMVLENLLAEYTKPSVMDVKMGSRTWYPDASEEYIQKCLKKDTGTTTVSSGFRISGFEVYDHKESSFWKPERKLLRGLDVDGARLTLRKFVSSNSLSDTGSKPDSAFASSVYGGSHGILTQLLELKTWFENQTLYHFNSCSILMVYENESILKGNDDDARPQVKLVDFAHVLDGNGVIDHNFLGGLCSFINFIREILQSPDESADS”, the “soluble on expression in E. coli” value was “soluble”.

With “MGSDKIHHHHHHAQKKDFSYKFYGQIRTDLYYNSRANEETVDGLFYMYPKDEVFDSNGRDLNATANGSFYTLYTRLGLDVKGPKLGRAMTSAKVEADFRGSGTSYSTIRLRHAYLNLDWGRSALLLGQTWHPLFGDVSPQILNLSVGAPFQPFSRAPQIRYRYTHKGFQLTGAAIWQSQYLSQGIVGKSQTYIKNSCVPEFYLGLDYKANGWIAGAGIELLSLKPRTESKVEDQVYKVNERITTLSYEGHVKYSNKDWFVGAKTVLGSNLTQTSMLGGFGIKSIDNRTGEQKYTPIRVSSSWLNVVYGQKWKPGIFLGYVKNMGTSDALASNQVYGTGTNVDQVVTAGAELTYNVNHWKFGVEYTYTSAAYGSLYLKNGKIIDTHSVGNNRIVGVAMFMF” the “soluble on expression in E. coli” value was “not soluble”.

In the case of “MMRRILLKSIKFYRIYLSPLKRNACCKFIPTCSQYAIDAIEKYGALKGSFMAVKRILRCNPFSKGGYDPVKLEHHHHHH”, the “soluble on expression in E. coli” value was “not soluble”.

For “MAHHHHHHMRFVFRRLLPASTAAVAAPPSLLSMRGAPSFVHPPAEEAIGKDVRATPANWVTAYVLPEVITEQEEKTLLDFSEPWFERLSYNDGHMDGLIHHYKEFYRSYAAITQAAETGSDAGLNMPHANLEVDLPLVSEALARAHDLAQTYLPCIPIDDRVHFLRLAGSGFIRAHVDESRNSTGIVAGLCLNAGRVMTLTHPAYPGERVELMLAPRCLYILIGRARYDWAHSVDWVGDDDEHIRRIQKSLAVEGTPIRFDGAETPYRRSDRTAIIFRGVSPMTLLVRRMRQRG”, the “soluble on expression in E. coli” value was “not soluble”.

In the case of “MAGDYSYDAVKREYVIGSDMTSYAHEVFAAAKPMDIRHNDLPQPDSVIDVTVSTTEWPEGDSNYPINPKLVFTNHSNVAIPGGSTIEFLMPTSSGDIVKDWSGAGLKVIESGHTGSNFSVNGEKKLFHKVAVTLRSTETIPAGGEYSVDMVYYTPVSGVANGVRFIVGNETVGLKKDFPTLPALEHHHHHH”, the “soluble on expression in E. coli” value was “soluble”.

In the case of “MGSDKIHHHHHHMSFKSSIAKMAGKSSYWFLHTFRSGGSSLPGKITTKIDPTILKDLGKDYDVIVITGTNGKTLTTALTVKVLRQKFDHVLTNPTGSNMEQGIVTTFLTDHKSKNGKNIAILEVDEANVIKVTQYIKPLAFVFTNIFRDQMDRYGEIYTTYRKILDGVKLAPEATIIANGDMPIFNSVDLPNPVVYYGFNNQPDGEMKADPNTDGVVCPRCEHIIHYKFISYSNQGKYYCPNCGWERPELTYQLTQITKLTPNLSKFFIDASNFTLHIGGLYNVYNALAAYSVGKFMGVPTSSIQKALNDPDERVFGRQEQINVDGKEITIVLVKNPVGLNQVIDMVGTESEPFSFVGLLNANYADGIDTSWIWDGNFEKLTQMPIQQYMTGGERYKDITFRLKVAGIEDNQLWTYDNLKDAVSNIKNLPTKRVYVFATYTAMLQLRKQLATEGYIKEGI”, the “soluble on expression in E. coli” value was “not soluble”.

For “MGSDKIHHHHHHMTTAQHTVEKIGGTSMSNYEAVRDNIIIGKRKKSDLYQRIFVVSAYGGVTNELLEHKKTGEPGVYALFADAESDWAWGDDLTKLIQLLTDINGELFADPMLKQQADQFITDRIEGVRGCLIDLQRLCSYGQFQLEEHLLTVREMLAGIGEAHSAFNTALKLQQEGINARFVDLTGWRDSELLPLDEKLKQAFDAIDLSRELPIVTGYAQCKEGLMRTFDRGYSEMTFSRTAVITNAREAIIHKEYHLSSADPNIVGEDKVVPLGRTNYDVADQLANLGMEAIHPRAGKGLRQNEIPLRVMNTFEPEHTGTLITGDYVSEKPQVEIVAGAKGVFAIEVFDQDMQGEPGSDRRILDVLSRFKVRFMSKDTNANTITHYVDTTLKHVKRVVKALEEEFPNAEISTRKVALVSAIGSDMKVPGILARSVKSLADNDISVLAIHQCMRQVDIQFVVDEDKYDQAIVALHGALIEPHNHEYAIVAASTTAG”, the “soluble on expression in E. coli” value was “not soluble”.

For “MVAESNSAVAPTANVATSPAHEHFVRVNGGHFELQGKPYVITGVNMWYAAYLGAPNEVGDRDRLAKELDNLKAIGVNNLRVLAVSEKSEINSAVKPAVTNGFGNYDETLLQGLDYLLVELAKRDMTVVLYFNNFWQWSGGMTQYMAWIEGEPVQDPNVTNEWEAFMAKSASFYRSEKAQQEYRKTLEKIITRVNSINGKAYVDDATIMSWQLANEPRPGNSQTTAEEKQIYIDWVHAAAAYIKTLDAHHLVSSGSEGEMGSVNDMQVFIDAHATPDIDYLTYHMWIRNWSWFDKTKPAETWPSAWEKAQNYMRAHIDVAKQLNKPLVLEEFGLDRDMGSYAMDSTTEYRDNYFRGVFELMLASLEQGEPSAGYNIWAWNGYGRTTRANYWWQEGDDFMGDPPQEEQGMYGVFDTDTSTIAIMKEFNARFQPKLEHHHHHH”, the “soluble on expression in E. coli” value was “soluble”.

In the case of “MSLTISDVPTQTLPAEGEIGLIDVGSLQLESGAVIDDVCIAVQRWGKLSPARDNVVVVLHALTGDSHITGPAGPGHPTPGWWDGVAGPGAPIDTTRWCAVATNVLGGCRGSTGPSSLARDGKPWGSRFPLISIRDQVQADVAALAALGITEVAAVVGGSMGGARALEWVVGYPDRVRAGLLLAVGARATADQIGTQTTQIAAIKADPDWQSGDYHETGRAPDAGLRLARRFAHLTYRGEIELDTRFANHNQGNEDPTAGGRYAVQSYLEHQGDKLLSRFDAGSYVILTEALNSHDVGRGRGGVSAALRACPVPVVVGGITSDRLYPLRLQQELADLLPGCAGLRVVESVYGHDGFLVETEAVGELIRQTLGLADREGACREGHHHHHH”, the “soluble on expression in E. coli” value was “not soluble”.

With “MKKVYLFKLKFNTPYGLRVGGPKEDISTLTPLKIGQHYVIPSSSWKGIFRRTTEVLITNPNHFRGHEGEDVTDDGSLDELLEAKGLENKNDENVRKERKRFIAMWNCPVERLYGSEYFASAVTFSDTLIDAEINQRTHVVIDRKTRKSEEKHLYSEQIVNVNSVRVKVIVRDRIDDWIKTLKFLSEFGTFVGGGKSRGIGYAVLDWKESEYAEVDGLTRKIMFKPLDELKL” the “soluble on expression in E. coli” value was “soluble”.

In the case of “METRRDERIGRLAQALKKTDKLHLKDAAQLLGVSEMTVRRDLNADSTSVMLLGGYVVSDLKNNGVTNYFVSDQQTKHVREKQAIGTAAAYLVEANDTVFFDCGTTIPFIIDAIPDELLFTAICYSLNTFLALQEKKACRVILCGGEYHPDNAIFTPLNQRCELDNICPNKAFISAAGIELNAGATCFNFAELGMKQRAMATAQRIIIVADNSKFGQIKRACIGPMTLFDTVISDSAPSEPYLRYFSNNGIQLIHPGNLEHHHHHH”, the “soluble on expression in E. coli” value was “soluble”.

In the case of “MGHHHHHHSHIKKNNHHEENISSKMKGLNGKVSDLEKAAAQRKAKLDENSAFLQFNWKADVVESWIGEKENSLKTDDYGRDLSSVQTLLTKQETFDAGLQAFQQEGIANITALKDQLLAAKHVQSKAIEARHASLMKRWSQLLANSAARKKKLLEAQSHFRKVEDLFLTFAKKASAFNSWFENAEEDLTDPVRCNSLEEIKALREAHDAFRSSLSSAQADFNQLAELDRQIKSFRVASNPYT”, the “soluble on expression in E. coli” value was “not soluble”.

In the case of “MGSDKIHHHHHHMTQDLAQFAAERGIKYFMISYTDLFGAQRAKLVPAQAIADMQKDGAGFAGFATWLDLTPAHPDLFAVPDASSVIQLPWKKDVAWVAADCVMDDKPVEQAPRVMLKKLVDEAASMGLRVKTGVEPEFFLISADGKTISDEFDTAEKPCYDQQALMRRYDVIAEICDHMLELGWKPYQNDHEDANGQFEMNWEYDDALKTADKHSFFKFMVKSVAEKHGLRATFMPKPFKGLTGNGCHAHISVWDNDGKVNAFADKAMPFGLSAKGKTFLGGIMKHASALAAVTNPTVNSYKRINAPRTVSGATWAPNTVTWTGNNRTHMVRVPGPGRFELRLPDGAVNPYLLQAIIIAAGLSGLKTNADPGPHYDIDMYREGHTVTDAPKLPLNLLDALRAYEADTELQQALGEEFSAAYLKLKHGEWTSYCSQFTPWEHQTTLDI”, the “soluble on expression in E. coli” value was “not soluble”.

With “MTTTPYDIIGKEALYDMIDYFYTLVEKDERLNHLFPGDFAETSRKQKQFLTQFLGGPNIYTEEHGHPMLRKRHMDFTITEFERDAWLENMQTAINRAAFPQGVGDYLFERLRLTANHMVNS” the “soluble on expression in E. coli” value was “not soluble”.

For “MSLQKITVPTWAEINLDNLRFNLNNIKNLLEEDIKICGVIKADAYGHGAVEVAKLLEKEKVDYLAVARTAEGIELRQNGITLPILNLGYTPDEAFEDSIKNKITMTVYSLETAQKINEIAKSLGEKACVHVKIDSGMTRIGFQPNEESVQEIIELNKLEYIDLEGMFTHFATADEVSKEYTYKQANNYKFMSDKLDEAGVKIAIKHVSNSAAIMDCPDLRLNMVRAGIILYGHYPSDDVFKDRLELRPAMKLKSKIGHIKQVEPGVGISYGLKYTTTGKETIATVPIGYADGFTRIQKNPKVLIKGEVFDVVGRICMDQIMVRIDKDIDIKVGDEVILFGEGEVTAERIAKDLGTINYEVLCMISRRVDRVYMENNELVQINSYLLKEGHHHHHH”, the “soluble on expression in E. coli” value was “soluble”.

In the case of “MHHHHHHSSGVDLGTENLYFQSMRLLRASGRTPEAVQKLLEQGLRHSQDLAFLSMLNDIAAVPATAMPFRGYAVLGGERGGPEVQQVPAGERPLWFICSGMGTQWRGMGLSLMRLDRFRDSILRSDEAVKPFGLKVSQLLLSTDESTFDDIVHSFVSLTAIQIGLIDLLSCMGLRPDGIVGHSLGEVACGYADGCLSQEEAVLAAYWRGQCIKEAHLPPGAMAAVGLSWEECKQRCPPGVVPACHNSKDTVTISGPQAPVFEFVEQLRKEGVFAKEVRTGGMAFHSYFMEAIAPPLLQELKKVIREPKPRSARWLSTSIPEAQWHSSLARTSSAEYNVNNLVSPVLFQEALWHVPEHAVVLEIAPHALLQAVLKRGLKPSCTIIPLMKKDHRDNLEFFLAGIGRLHLSGIDANPNALFPPVEFPAPRGTPLIS”, the “soluble on expression in E. coli” value was “soluble”.

For “MGEYIRYQGEEALGLIETLGMVPAIYGADSMLKAANVQLISYENVGSTLVTVMVKGDVAAVQASVDAGSVAAAGIGKLTAHNVMPRPIRPIGDIVSVHAITDDAPAGDGSRPRAMGLIETFGIVYVLEAADAMLKTADVELIGYENVASGYISVLVQGDVAACQAAVAAGVKAVQAMGTDVYSSVVIPTPHPDVAKITARYALENLLP”, the “soluble on expression in E. coli” value was “not soluble”.

In the case of “MGSDKIHHHHHHMKATKRIAEATQESLHRIFTIAEAPDSTLGRLEQEMSQNLVGFLNNHIVASKNALTDIEQDFINARIPEQPEFVSDHMHHLLDKLVAQSVHTSSPSFIGHMTSALPSFILPLSKLMVGLNQNLVKVETSKAFTPLERQVLGMMHNLVYQHDDVFYKNWMHSAEHSLGAFCSGGTVANITALWVARNKLLKADGDFRGVAREGLHRAMRHYGYQDLAILVSDRGHYSLKKSADILGIGQENVIAIPTDEHNKIDCQKLADKCQQLAAQNIKVLAIVGVAGTTETGNIDPLDKIAEIAQQNQCHFHVDAAWGGATLLSNKYRPLLKGIEQADSVTIDAHKQMYVPMGAGLVIFKDPASVSAIEHHAEYILRKGSKDLGSHTLEGSRPGMAMLVYSSLHIISRPGYEMLINQAIEKAEYFADIIHQHDDFELITRPELCLLTYRYAPKSVQALLARNDDEANKSVNMLLGKLTKFIQKRQREDGRSFVSRTRIEVSRYGGEKVIVFRVVLANPLTTKEILQGILQEQCQLAQESEQFLPELLQAAK”, the “soluble on expression in E. coli” value was “not soluble”.
